Source: US20220387578A1

Key:
Test in all cases: ELISA
[1] = biological target: H1 HA A/Solomon Islands/03/2006 (H1N1), recombinant soluble trimer (influenza A virus)
[2] = biological target: H1 HA A/Texas/36/1991 (H1N1), recombinant soluble trimer (influenza A virus)
[3] = biological target: H3 HA A/Texas/50/2012, recombinant soluble trimer (influenza A virus)

Measured: EC50 relative to wild type rFluA-20

B1: rFluA-20 heavy chain mutant Y100aA (antibody, V domains shown)
VH: QVQLQESGPGLVKPSETLSLTCSVSGVSVTSDIYYWTWIRQPPGKGLEWIGYIFYNGDTNYNPSLKSRVTMSIDTSKNEFSLRLTSVTAADTAVYFCARGTEDLGACSSGSCPNHWGQGTLVTVSS
VL: DIQMTQSPSSLSASIGDRVTITCRPSQNIRSFLNWFQHKPGKAPKLLIYAASNLQSGVPSRFSGSGSGTEFTLTIRSLQPEDFATYYCQQSYNTPPTFGQGTKVEIK
> 100 fold: all assays above
